# Laboratory results taken from publication PMC11574045, “A cofactor-induced repressive type of transcription factor condensation can be induced by synthetic peptides to suppress tumorigenesis” (The EMBO Journal, 2024).
# B1: CDX2 (protein, UniProt Q99626 1-313, looked up)
# Homeobox protein CDX-2: MYVSYLLDKDVSMYPSSVRHSGGLNLAPQNFVSPPQYPDYGGYHVAAAAAAAANLDSAQSPGPSWPAAYGAPLREDWNGYAPGGAAAAANAVAHGLNGGSPAAAMGYSSPADYHPHHHPHHHPHHPAAAPSCASGLLQTLNPGPPGPAATAAAEQLSPGGQRRNLCEWMRKPAQQSLGSQVKTRTKDKYRVVYTDHQRLELEKEFHYSRYITIRRKAELAATLGLSERQVKIWFQNRRAKERKINKKKLQQQQQQQPPQPPPPPPQPPQPQPGPLRSVPEPLSPVSSLQASVPGSVPGVLGPTGGVLNPTVTQ
# B2: ZSCAN1 (protein, UniProt Q8NBB4 1-408, looked up)
# Zinc finger and SCAN …: MLPRPKAPASPRRPQTPTPSEQDADPGPASPRDTEAQRLRFRQFQYHVASGPHLALGQLWTLCRQWLRPEARSKEQMLELLVLEQFLGALPSKMRTWVQSQGPRSCREAASLVEDLTQMCQQEVLVSLDSVEPQDWSFGEEEDGKSPRSQKEPSQASELILDAVAAAPALPEESEWLETTQLQQSLHTRAEAEAPRAPGLLGSRARLPLKPSIWDEPEDLLAGPSSDLRAEGTVISSPKGPSAQRISPRRRNRNTDQSGRHQPSLKHTKGGTQEAVAGISVVPRGPRGGRPFQCADCGMVFTWVTHFIEHQKTHREEGPFPCPECGKVFLHNSVLTEHGKIHLLEPPRKKAPRSKGPRESVPPRDGAQGPVAPRSPKRPFQCSVCGKAFPWMVHLIDHQKLHTAHGHM
# B3: ZNF791 (protein, UniProt Q3KP31 1-576, looked up)
# Zinc finger protein 791: MDSVAFEDVSVSFSQEEWALLAPSQKKLYRDVMQETFKNLASIGEKWEDPNVEDQHKNQGRNLRSHTGERLCEGKEGSQCAENFSPNLSVTKKTAGVKPYECTICGKAFMRLSSLTRHMRSHTGYELFEKPYKCKECEKAFSYLKSFQRHERSHTGEKPYKCKQCGKTFIYHQPFQRHERTHIGEKPYECKQCGKALSCSSSLRVHERIHTGEKPYECKQCGKAFSCSSSIRVHERTHTGEKPYACKECGKAFISHTSVLTHMITHNGDRPYKCKECGKAFIFPSFLRVHERIHTGEKPYKCKQCGKAFRCSTSIQIHERIHTGEKPYKCKECGKSFSARPAFRVHVRVHTGEKPYKCKECGKAFSRISYFRIHERTHTGEKPYECKKCGKTFNYPLDLKIHKRNHTGEKPYECKECAKTFISLENFRRHMITHTGDGPYKCRDCGKVFIFPSALRTHERTHTGEKPYECKQCGKAFSCSSYIRIHKRTHTGEKPYECKECGKAFIYPTSFQGHMRMHTGEKPYKCKECGKAFSLHSSFQRHTRIHNYEKPLECKQCGKAFSVSTSLKKHMRMHNR
# B4: CEBPE (protein, UniProt Q15744 1-281, looked up)
# CCAAT/enhancer-binding …: MSHGTYYECEPRGGQQPLEFSGGRAGPGELGDMCEHEASIDLSAYIESGEEQLLSDLFAVKPAPEARGLKGPGTPAFPHYLPPDPRPFAYPPHTFGPDRKALGPGIYSSPGSYDPRAVAVKEEPRGPEGSRAASRGSYNPLQYQVAHCGQTAMHLPPTLAAPGQPLRVLKAPLATAAPPCSPLLKAPSPAGPLHKGKKAVNKDSLEYRLRRERNNIAVRKSRDKAKRRILETQQKVLEYMAENERLRSRVEQLTQELDTLRNLFRQIPEAANLIKGVGGCS
# B5: ZZZ3 (protein, UniProt Q8IYH5 1-903, looked up)
# ZZ-type zinc …: MAASRSTRVTRSTVGLNGLDESFCGRTLRNRSIAHPEEISSNSQVRSRSPKKRPEPVPIQKGNNNGRTTDLKQQSTRESWVSPRKRGLSSSEKDNIERQAIENCERRQTEPVSPVLKRIKRCLRSEAPNSSEEDSPIKSDKESVEQRSTVVDNDADFQGTKRACRCLILDDCEKREIKKVNVSEEGPLNSAVVEEITGYLAVNGVDDSDSAVINCDDCQPDGNTKQNSIGSYVLQEKSVAENGDTDTQTSMFLDSRKEDSYIDHKVPCTDSQVQVKLEDHKIVTACLPVEHVNQLTTEPATGPFSETQSSLRDSEEEVDVVGDSSASKEQCKENTNNELDTSLESMPASGEPEPSPVLDCVSAQMMSLSEPQEHRYTLRTSPRRAAPTRGSPTKNSSPYRENGQFEENNLSPNETNATVSDNVSQSPTNPGEISQNEKGICCDSQNNGSEGVSKPPSEARLNIGHLPSAKESASQHITEEEDDDPDVYYFESDHVALKHNKDYQRLLQTIAVLEAQRSQAVQDLESLGRHQREALKNPIGFVEKLQKKADIGLPYPQRVVQLPEIVWDQYTHSLGNFEREFKNRKRHTRRVKLVFDKVGLPARPKSPLDPKKDGESLSYSMLPLSDGPEGSSSRPQMIRGRLCDDTKPETFNQLWTVEEQKKLEQLLIKYPPEEVESRRWQKIADELGNRTAKQVASRVQKYFIKLTKAGIPVPGRTPNLYIYSKKSSTSRRQHPLNKHLFKPSTFMTSHEPPVYMDEDDDRSCFHSHMNTAVEDASDDESIPIMYRNLPEYKELLQFKKLKKQKLQQMQAESGFVQHVGFKCDNCGIEPIQGVRWHCQDCPPEMSLDFCDSCSDCLHETDIHKEDHQLEPIYRSETFLDRDYCVSQGTSYNYLDPNYFPANR
# B6: CEBPD (protein, UniProt P49716 2-269, looked up)
# CCAAT/enhancer-binding …: SAALFSLDGPARGAPWPAEPAPFYEPGRAGKPGRGAEPGALGEPGAAAPAMYDDESAIDFSAYIDSMAAVPTLELCHDELFADLFNSNHKAGGAGPLELLPGGPARPLGPGPAAPRLLKREPDWGDGDAPGSLLPAQVAACAQTVVSLAAAGQPTPPTSPEPPRSSPRQTPAPGPAREKSAGKRGPDRGSPEYRQRRERNNIAVRKSRDKAKRRNQEMQQKLVELSAENEKLHQRVEQLTRDLAGLRQFFKQLPSPPFLPAAGTADCR
# B7: ZNF800 (protein, UniProt Q2TB10 1-664, looked up)
# Zinc finger protein 800: MPLRDKYCQTDHHHHGCCEPVYILEPGDPPLLQQPLQTSKSGIQQIIECFRSGTKQLKHILLKDVDTIFECKLCRSLFRGLPNLITHKKFYCPPSLQMDDNLPDVNDKQSQAINDLLEAIYPSVDKREYIIKLEPIETNQNAVFQYISRTDNPIEVTESSSTPEQTEVQIQETSTEQSKTVPVTDTEVETVEPPPVEIVTDEVAPTSDEQPQESQADLETSDNSDFGHQLICCLCRKEFNSRRGVRRHIRKVHKKKMEELKKYIETRKNPNQSSKGRSKNVLVPLSRSCPVCCKSFATKANVRRHFDEVHRGLRRDSITPDIATKPGQPLFLDSISPKKSFKTRKQKSSSKAEYNLTACKCLLCKRKYSSQIMLKRHMQIVHKITLSGTNSKREKGPNNTANSSEIKVKVEPADSVESSPPSITHSPQNELKGTNHSNEKKNTPAAQKNKVKQDSESPKSTSPSAAGGQQKTRKPKLSAGFDFKQLYCKLCKRQFTSKQNLTKHIELHTDGNNIYVKFYKCPLCTYETRRKRDVIRHITVVHKKSSRYLGKITASLEIRAIKKPIDFVLNKVAKRGPSRDEAKHSDSKHDGTSNSPSKKYEVADVGIEVKVTKNFSLHRCNKCGKAFAKKTYLEHHKKTHKANASNSPEGNKTKGRSTRSKALV
# B8: ZXDA (protein, UniProt P98168 1-799, looked up)
# Zinc finger X-linked protein …: MEIPKLLPARGTLQGGGGGGIPAGGGRVHRGPDSPAGQVPTRRLLLPRGPQDGGPGRRREEASTASRGPGPSLFAPRPHQPSGGGDDFFLVLLDPVGGDVETAGSGQAAGPVLREEAKAGPGLQGDESGANPAGCSAQGPHCLSAVPTPAPISAPGPAAAFAGTVTIHNQDLLLRFENGVLTLATPPPHAWEPGAAPAQQPRCLIAPQAGFPQAAHPGDCPELRSDLLLAEPAEPAPAPAPQEEAEGLAAALGPRGLLGSGPGVVLYLCPEALCGQTFAKKHQLKMHLLTHSSSQGQRPFKCPLGGCGWTFTTSYKLKRHLQSHDKLRPFGCPAEGCGKSFTTVYNLKAHMKGHEQENSFKCEVCEESFPTQAKLGAHQRSHFEPERPYQCAFSGCKKTFITVSALFSHNRAHFREQELFSCSFPGCSKQYDKACRLKIHLRSHTGERPFLCDFDGCGWNFTSMSKLLRHKRKHDDDRRFMCPVEGCGKSFTRAEHLKGHSITHLGTKPFVCPVAGCCARFSARSSLYIHSKKHLQDVDTWKSRCPISSCNKLFTSKHSMKTHMVKRHKVGQDLLAQLEAANSLTPSSELTSQRQNDLSDAEIVSLFSDVPDSTSAALLDTALVNSGILTIDVASVSSTLAGHLPANNNNSVGQAVDPPSLMATSDPPQSLDTSLFFGTAATGFQQSSLNMDEVSSVSVGPLGSLDSLAMKNSSPEPQALTPSSKLTVDTDTLTPSSTLCENSVSELLTPAKAEWSVHPNSDFFGQEGETQFGFPNAAGNHGSQKERNLITVTGSSFLV
# B9: ZSCAN10 (protein, UniProt Q96SZ4 1-780, looked up)
# Zinc finger and SCAN …: MLGESVPAAVEQEQLGEVKLEEEEAVSPEDPRRPESRLRPEVAHQLFRCFQYQEDMGPRASLSRLRELCGHWLRPALHTKKQILELLVLEQFLSVLPPHLLGRLQGQPLRDGEEVVLLLEGIHREPSHAGPLDFSCNAGKSCPRADVTLEEKGCASQVPSHSPKKELPAEEPSVLGPSDEPPRPQPRAAQPAEPGQWRLPPSSKQPLSPGPQKTFQALQESSPQGPSPWPEESSRDQELAAVLECLTFEDVPENKAWPAHPLGFGSRTPDKEEFKQEEPKGAAWPTPILAESQADSPGVPGEPCAQSLGRGAAASGPGEDGSLLGSSEILEVKVAEGVPEPNPELQFICADCGVSFPQLSRLKAHQLRSHPAGRSFLCLCCGKSFGRSSILKLHMRTHTDERPHACHLCGHRFRQSSHLSKHLLTHSSEPAFLCAECGRGFQRRASLVQHLLAHAQDQKPPCAPESKAEAPPLTDVLCSHCGQSFQRRSSLKRHLRIHARDKDRRSSEGSGSRRRDSDRRPFVCSDCGKAFRRSEHLVAHRRVHTGERPFSCQACGRSFTQSSQLVSHQRVHTGEKPYACPQCGKRFVRRASLARHLLTHGGPRPHHCTQCGKSFGQTQDLARHQRSHTGEKPCRCSECGEGFSQSAHLARHQRIHTGEKPHACDTCGHRFRNSSNLARHRRSHTGERPYSCQTCGRSFRRNAHLRRHLATHAEPGQEQAEPPQECVECGKSFSRSCNLLRHLLVHTGARPYSCTQCGRSFSRNSHLLRHLRTHARETLY
# B10: ZPF91 (protein, UniProt Q96JP5 2-570, looked up)
# E3 ubiquitin-protein ligase …: PGETEEPRPPEQQDQEGGEAAKAAPEEPQQRPPEAVAAAPAGTTSSRVLRGGRDRGRAAAAAAAAAVSRRRKAEYPRRRRSSPSARPPDVPGQQPQAAKSPSPVQGKKSPRLLCIEKVTTDKDPKEEKEEEDDSALPQEVSIAASRPSRGWRSSRTSVSRHRDTENTRSSRSKTGSLQLICKSEPNTDQLDYDVGEEHQSPGGISSEEEEEEEEEMLISEEEIPFKDDPRDETYKPHLERETPKPRRKSGKVKEEKEKKEIKVEVEVEVKEEENEIREDEEPPRKRGRRRKDDKSPRLPKRRKKPPIQYVRCEMEGCGTVLAHPRYLQHHIKYQHLLKKKYVCPHPSCGRLFRLQKQLLRHAKHHTDQRDYICEYCARAFKSSHNLAVHRMIHTGEKPLQCEICGFTCRQKASLNWHMKKHDADSFYQFSCNICGKKFEKKDSVVAHKAKSHPEVLIAEALAANAGALITSTDILGTNPESLTQPSDGQGLPLLPEPLGNSTSGECLLLEAEGMSKSYCSGTERVSLMADGKIFVGSGSSGGTEGLVMNSDILGATTEVLIEDSDSAGP
# Test system: HEK293FT cells transfected with TF library
# Experiment: Screening of TF condensates based on fluorescent puncta
# Type: cell-based
# Settings: Figure 1B numerical data; TF library screen, one value per transcriptional factor
# How it was run: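 Cells were seeded onto plasmid/PEI-loaded wells (plasmid 1.6 μg/ml final) and grown 60 h. Medium with or without glucose followed for 12 h. Fixed, permeabilized cells were stained against Flag or GAL4 tags, and condensate puncta were quantified from 50 random fields per well.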
row,Molecule,Z score of condensed fraction
1,B1,-0.211
2,B2,1.179
3,B3,-0.6142
4,B4,-0.2607
5,B5,-0.9122
6,B6,-0.4872
7,B7,3.058
8,B8,-0.8138
9,B9,-0.1901
10,B10,-0.03316
